Values quoted from earlier work in publication PMC4599565.

Target: VWF (Homo sapiens) (UniProt P04275)

For ADAMTS13 (from UniProt Q76LX8), the Kd is listed as 20 nM.
